Measured values published in patent publication US20090291083A1, “BARB4 TARGET, ANTIBODY DESIGNATED BARB4, BARB4 RELATED ANTIBODIES, AND METHODS OF MAKING AND USING SAME” (PATRYS LIMITED, priority 2008, published 2009).

How the values were obtained:
[1] = test system: membrane preparations of tumor cell line BXPC-3; test: Western blot on membrane preparations; format: binding, human; conditions: BXPC-3 membrane preparation; FIG. 6A
Protocol: For BARB4 target assays the established, human pancreatic adenocarcinoma cell line BXPC-3 was used. The adherent cells were grown to a confluence of about 90% in RPMI 1640 culture medium (PAA, Vienna) supplemented with 10% (V/V) FCS, 1% (V/V) glutamine and 1% (V/V) streptomycin/penicillin at 37° C. and a 7% CO2 atmosphere (HERA cell incubator, Heraeus, Hanau). Sterile tissue culture dishes 145/20 (greiner bio-one, Frickenhausen) were prepared with 1 ml cell suspension containing 2−3×10^6 cells/ml (suspension medium is equivalent to culture medium described above) and 50 ml supplemented RPMI 1640 medium. After three or four days the carcinoma cells could be harvested for membrane extract preparation. For this purpose, BXPC-3 cells were washed with phosphate-buffered saline (PBS; containing 0.137 M NaCl, 0.027 M KCl, 0.065 M Na2HPO4×2H2O, 0.015 M KH2PO4) and the adherent cells were scraped off the tissue culture dishes. The cell suspension was centrifuged (1500×g for 5 minutes at room temperature). The supernatant was removed and the pellet was washed again with PBS followed by a further centrifugation step (1500×g, 5 minutes at room temperature). Afterwards the supernatant was removed again. A single cell pellet includes carcinoma cells from 10 tissue culture dishes. It was immediately used for membrane extract preparation or stored at −20° C. […]

A549 = test: FACS analysis of cell surface binding, BARB4 and commercial TAF 15 antibody; set-up: species or system human; conditions: BARB4 100 ug/ml, TAF 15 antibody 25 μg/ml
Protocol: (§1) To further validate BARB4 target protein TAF 15, BARB4 and a commercial TAF 15 antibody (anti-human TAFII p68, Santa Cruz Biotechnology, sc-81121) were analyzed for binding to BxPC-3, HEK 293, A549 and HeLa cell lines. In brief, cells were trypsinized with cell dissociation solution (Sigma C5789), resuspended in complete medium (RPMI 1640, PAA, E15-039, 10% Fetal bovine serum, PAA, A15-151 and 1% Glutamine, PAA, M11-004) and set on 2×10^5/ml. After 30 minutes on ice, cells were dispersed at 1 ml per FACS-tube and washed once with ice-cold PBS by centrifugation with 500 g and 4° C. Staining was done with BARB4 (100 ug/ml) or the commercial TAF 15 (25 μg/ml) IgG antibodies, control IgGs (IgG lambda, or mouse IgG), or without antibody in 200 μl PBS. Cells were incubated with 25 μg/ml antibody in 100 μl for 30 minutes on ice, then washed with ice cold PBS and secondary antibody (anti mouse IgG-FITC, dianova 115-095-008) was applied at a dilution of 1:50 in 200 μl per tube. After another 30 minutes of incubation in the dark, cells were washed twice with PBS and analyzed by FACS. […] BARB4 target protein TAF 15 validation was then analyzed by immunoprecipitation of MKNcell extracts with BARB4 and subsequent Western blotting with either BARB4 or anti-TAF 15 antibodies (Biomol, A300-308A; or Aviva, ARP30111_T100).

BxPC-3 = test: as above; set-up: species or system human; conditions: BARB4 100 ug/ml, TAF 15 antibody 25 μg/ml
Protocol: as §1

B1: BARB4: human IgG antibody produced by hybridoma DSMZ Deposit No. DSM ACC2876; heavy chain SEQ ID NOs:1, 3, 5, 7, light chain SEQ ID NO:9 (antibody, V domains shown)
VH: QVQLVESGGGVVQPGRSLRLSCAASGFRFTTHGMHWVRQAPGKGLEWVAVISYNGRNKYYADYVNGRFTISRDDSRDTVFLQMNSLRPEDTAMYYCAKVRGDGYGDYGYFDYWGHGTLVSVSS
VL: QSALTQPRSVSGSPGQSVTISCTGTYNYVSWYQQHPGKAPKLMIFDVSRRSSGVPDRFSGSKSGNTASLTISGLQAEDEADYYCCSYGGTYLYVFGTGTTVTVLGQ
binding on Western blots with membrane preparations [1]: binds to a membrane molecule with a relative molecular mass between 70 and 85 kD
FACS binding to the cell surface (A549): binding
FACS binding to the cell surface (BxPC-3): binding
